Data on six substances can be found in US8993229.

A value given as a limit tells only on which side of the number the result lay.

The target in test [1] is porcine gastric mucin coupled to magnetic beads (mucin from porcine stomach, type III, Sigma) (porcine). Briefly: PGM-MB pull-down, qRT-PCR; 0 J/cm^2 in the UV series.
The target is the same in test [2]. Briefly: PGM-MB pull-down, qRT-PCR; untreated virus in the 300-600 MPa series. (In qPCR the cycle at which signal appears reflects the starting amount.)
Test [3] has the same target. Briefly: PGM-MB pull-down, qRT-PCR; untreated control in the initial pressure trials.
Test [4] has the same target. The experiment in a line: PGM-MB pull-down, qRT-PCR; untreated virus (0 seconds) in the thermal series.
For test [5] the target is unchanged. Briefly: PGM-MB pull-down, qRT-PCR; 0 J/cm^2; printed as 'bound' but the context (84% bound) shows it is the unbound fraction.
Test [6] has the same target. The experiment in a line: PGM-MB pull-down, qRT-PCR; after about 60 seconds in the heat block, about 64 C.
Test [7] shares this target. The experiment in a line: PGM-MB pull-down, qRT-PCR; after 600 MPa, 5 minutes, 5 C.
The target is the same in test [8]. Briefly: PGM-MB pull-down, qRT-PCR of the bound fraction; after 500 and 600 MPa, 5 minutes, 5 C.
The target is the same in test [9]. Briefly: PGM-MB pull-down, qRT-PCR; after 1 J/cm^2 UV.
Test [10] shares this target. The experiment in a line: PGM-MB pull-down, qRT-PCR; after 0.5 J/cm^2 UV.
Test [11] shares this target. Briefly: PGM-MB pull-down, qRT-PCR; after 0.25 J/cm^2 UV.

As to “GI.1 Norwalk strain norovirus (untreated virions from stool stock, patient No. 505A-05) (from UniProt Q83884 1-530)”, the percent bound in test [1] came to 84%; in test [2], 82%; in test [3], 71%; in [4], 68%. Further, the percent unbound in [4] is 32%; in test [5] it was 16%.

Consider “GII.4 norovirus (untreated virions, stock provided by the CDC)”, for which the percent bound in [3] is 69%.

With “GI.1 norovirus after thermal treatment (80 C heat block, 0-600 seconds) (from UniProt Q83884 1-530)”, the percent bound in test [6] is 6%.

In turn, “GI.1 norovirus after high pressure treatment (300-600 MPa, 5 minutes, 5 C) (from UniProt Q83884 1-530)” had a percent bound in test [7] of 0.3%. The substance further gave a log10 reduction of qRT-PCR detectable norovirus RNA after binding to PGM-MBs in test [8] above 4.7.

Consider “GI.1 norovirus after UV treatment (254 nm, up to 2 J/cm^2) (from UniProt Q83884 1-530)”, for which the percent bound was found to be 4% in test [9] and 33% in test [10]. The percent unbound in [10] amounted to 67%; in test [11], 40%.

For “GII.4 norovirus after high pressure treatment (600 MPa, 5 minutes, 5 C)”, the percent bound in [7] stood at 4%.
